Six molecules from paper PMC5870375, “Amyloid-beta modulates microglial responses by binding to the triggering receptor expressed on myeloid cells 2 (TREM2)” (Molecular Neurodegeneration, 2018) can be followed below.

B1: sTREM2-Fc fragment carrying residues 1–51 (Fc fusion, human, UniProt Q9NZC2 19-51, looked up)
chain: HNTTVFQGVAGQSLQVSCPYDSMKHWGRRKAWC
notes: signal peptide in the construct; human TREM2, C-terminally truncated extracellular domain, residues 1-51
B2: sTREM2-Fc fragment carrying residues 1–111 (Fc fusion, human, UniProt Q9NZC2 19-111, looked up)
chain: HNTTVFQGVAGQSLQVSCPYDSMKHWGRRKAWCRQLGEKGPCQRVVSTHNLWLLSFLRRWNGSTAITDDTLGGTLTITLRNLQPHDAGLYQCQ
notes: signal peptide in the construct
B3: sTREM2-Fc fragment carrying residues 1–151 (Fc fusion, human, UniProt Q9NZC2 19-151, looked up)
chain: HNTTVFQGVAGQSLQVSCPYDSMKHWGRRKAWCRQLGEKGPCQRVVSTHNLWLLSFLRRWNGSTAITDDTLGGTLTITLRNLQPHDAGLYQCQSLHGSEADTLRKVLVEVLADPLDHRDAGDLWFPGESESFE
notes: signal peptide in the construct; human TREM2, C-terminally truncated extracellular domain, residues 1-151
B4: sTREM2-Fc fragment carrying residues 1–131 (Fc fusion, human, UniProt Q9NZC2 19-131, looked up)
chain: HNTTVFQGVAGQSLQVSCPYDSMKHWGRRKAWCRQLGEKGPCQRVVSTHNLWLLSFLRRWNGSTAITDDTLGGTLTITLRNLQPHDAGLYQCQSLHGSEADTLRKVLVEVLAD
notes: as for B2
B5: sTREM2-Fc fragment carrying residues 1–91 (Fc fusion, human, UniProt Q9NZC2 19-91, looked up)
chain: HNTTVFQGVAGQSLQVSCPYDSMKHWGRRKAWCRQLGEKGPCQRVVSTHNLWLLSFLRRWNGSTAITDDTLGG
notes: signal peptide in the construct; human TREM2, C-terminally truncated extracellular domain, residues 1-91
B6: sTREM2-Fc fragment carrying residues 1–71 (Fc fusion, human, UniProt Q9NZC2 19-71, looked up)
chain: HNTTVFQGVAGQSLQVSCPYDSMKHWGRRKAWCRQLGEKGPCQRVVSTHNLWL
notes: signal peptide in the construct; human TREM2, C-terminally truncated extracellular domain, residues 1-71

In this test the target is T1, oligomeric amyloid-β 1–42 (UniProt P05067 672-713).
T1 construct: amyloid-beta 1-42, cut product of the amyloid precursor protein (APP); numbers count on: the Aβ peptide; Heterogeneous mixture of low-n and high-n oligomers, prepared without separation of monomeric Aβ; also called oAβ_(1–42); oAβ; source: synthetic peptide, bought: AnaSpec (AS-20276); oligomers made by incubation at 22 °C for 16 h, then 4 °C for 24 h, supernatant after 16,000×g
Put plainly: ELISA; solid phase binding assay: 96-well plate coated with 100 nM oAβ1-42 in PBS overnight at 4 °C, blocked with 4% BSA; purified Fc or sTREM2-Fc proteins in PBST with 0.5% BSA, 30 min at 37 °C; detected with biotinylated anti-Fc antibody, avidin-HRP, TMB, read at 620 nm. The settings on record: both partners purified. In general terms: In an ELISA, binding on a coated surface is turned into a signal by an enzyme label.
B1: the binding result is recorded as “binds”.
Next, B2: “binds”; B3: “binds”; B4: “binds”.
Regarding B5, the binding result is recorded as “binds”.
Next, B6: “binds”.
